Data published in doi:10.1101/2023.01.31.526478.

Biological target: SNAP-SPIN1 (human) (UniProt Q9Y657)
Assay: FRET or BRET

UniProt Q9Y657, sequence (Q9Y657 whole entry): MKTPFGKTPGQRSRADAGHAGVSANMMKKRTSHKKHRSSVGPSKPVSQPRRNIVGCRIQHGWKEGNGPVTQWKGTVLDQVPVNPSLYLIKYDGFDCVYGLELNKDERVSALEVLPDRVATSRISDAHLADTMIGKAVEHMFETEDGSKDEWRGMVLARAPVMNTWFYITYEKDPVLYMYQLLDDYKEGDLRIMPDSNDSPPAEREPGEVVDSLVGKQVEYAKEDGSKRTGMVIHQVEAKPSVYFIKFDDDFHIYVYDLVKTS

Halo-WDR76 (from UniProt Q9H967 1-626) (natural protein)
FRET efficiency: 2%
